The series concerns the molecule itself. Nature of the series: SEC. (In gel filtration, larger molecules generally elute earlier.)

Several values for one entry are separate records, joined by “and”; a condition that tells them apart may be missing. Equal values may be shown once.

B1: Synechocystis sp. PCC 6803 fructose-1,6-bisphosphatase (FBPase; slr0952) (enzyme, UniProt P74324 1-347, looked up)
chain: MTVSEIHIPNSLLDRDCTTLSRHVLQQLNSFGADAQDLSAIMNRIALAGKLIARRLSRAGLMADVLGFTGETNVQGESVKKMDVFANDVFISVFKQSGLVCRLASEEMEKPYYIPENCPIGRYTLLYDPIDGSSNVDINLNVGSIFAIRQQEGDDLDGSASDLLANGDKQIAAGYILYGPSTILVYSLGSGVHSFILDPSLGEFILAQENIRIPNHGPIYSTNEGNFWQWDEALRDYTRYVHRHEGYTARYSGALVGDIHRILMQGGVFLYPGTEKNPDGKLRLLYETAPLAFLVEQAGGRASDGQKRLLDLIPSKLHQRTPAIIGSAEDVKLVESFISDHKQRQGN
Broadly, the stoichiometry N is the number of molecules, sites or subunits per partner or assembly. As for B1, the “stoichiometry N” value was 12 and 4.
